# How the values were obtained:
# [1] = target: gp70 env protein of amphotropic MLV (4070A envelope), on purified viral particles (amphotropic murine leukemia virus (4070A envelope)); assay: ELISA on plate-bound MLV, dilution factor 1250, Exp122-Ana Plate 1
# [2] = target: gp70 env protein of amphotropic MLV (4070A envelope), on purified viral particles (amphotropic murine leukemia virus (4070A envelope)); assay: ELISA on plate-bound MLV, dilution factor 10, Exp072-DTV Plate 1
# [3] = target: gp70 env protein of amphotropic MLV (4070A envelope), on purified viral particles (amphotropic murine leukemia virus (4070A envelope)); assay: ELISA on plate-bound MLV, dilution factor 31250, inter-assay mean of six experiments
# [4] = target: gp70 env protein of amphotropic MLV (4070A envelope), on purified viral particles (amphotropic murine leukemia virus (4070A envelope)); assay: ELISA on plate-bound MLV, dilution factor 10, inter-assay mean of six experiments
# [5] = target: gp70 env protein of amphotropic MLV (4070A envelope), on purified viral particles (amphotropic murine leukemia virus (4070A envelope)); assay: ELISA on plate-bound MLV, dilution factor 156250, Exp073-DTV Plate 1
# [6] = target: gp70 env protein of amphotropic MLV (4070A envelope), on purified viral particles (amphotropic murine leukemia virus (4070A envelope)); assay: ELISA on plate-bound MLV, dilution factor 156250, Exp122-Ana Plate 1
# [7] = target: gp70 env protein of amphotropic MLV (4070A envelope), on purified viral particles (amphotropic murine leukemia virus (4070A envelope)); assay: ELISA on plate-bound MLV, dilution factor 10, Exp121-Ana Plate 1
# [8] = target: gp70 env protein of amphotropic MLV (4070A envelope), on purified viral particles (amphotropic murine leukemia virus (4070A envelope)); assay: ELISA on plate-bound MLV, dilution factor 250, Exp072-DTV Plate 2
# [9] = target: gp70 env protein of amphotropic MLV (4070A envelope), on purified viral particles (amphotropic murine leukemia virus (4070A envelope)); assay: ELISA on plate-bound MLV, dilution factor 50, Exp073-DTV Plate 1
# [10] = target: gp70 env protein of amphotropic MLV (4070A envelope), on purified viral particles (amphotropic murine leukemia virus (4070A envelope)); assay: ELISA on plate-bound MLV, dilution factor 10, Exp074-DTV Plate 2
# [11] = target: gp70 env protein of amphotropic MLV (4070A envelope), on purified viral particles (amphotropic murine leukemia virus (4070A envelope)); assay: ELISA on plate-bound MLV, dilution factor 781250, Exp125-Ana Plate 1
# [12] = target: gp70 env protein of amphotropic MLV (4070A envelope), on purified viral particles (amphotropic murine leukemia virus (4070A envelope)); assay: ELISA on plate-bound MLV, dilution factor 10, Exp125-Ana Plate 1
# [13] = target: gp70 env protein of amphotropic MLV (4070A envelope), on purified viral particles (amphotropic murine leukemia virus (4070A envelope)); assay: ELISA on plate-bound MLV, dilution factor 50, Exp074-DTV Plate 1
# [14] = target: gp70 env protein of amphotropic MLV (4070A envelope), on purified viral particles (amphotropic murine leukemia virus (4070A envelope)); assay: ELISA on plate-bound MLV, dilution factor 31250, Exp073-DTV Plate 2
# [15] = target: gp70 env protein of amphotropic MLV (4070A envelope), on purified viral particles (amphotropic murine leukemia virus (4070A envelope)); assay: ELISA on plate-bound MLV, dilution factor 1250, Exp073-DTV Plate 2
# [16] = target: gp70 env protein of amphotropic MLV (4070A envelope), on purified viral particles (amphotropic murine leukemia virus (4070A envelope)); assay: ELISA on plate-bound MLV, dilution factor 250, Exp074-DTV Plate 1
# [17] = target: gp70 env protein of amphotropic MLV (4070A envelope), on purified viral particles (amphotropic murine leukemia virus (4070A envelope)); assay: human anti-MLV ELISA on plate-bound MLV, anti-rat Ig HRP alone or conjugate cocktail
# [18] = target: gp70 env protein of amphotropic MLV (4070A envelope), on purified viral particles (amphotropic murine leukemia virus (4070A envelope)); assay: ELISA on plate-bound MLV, dilution factor 781250, Exp073-DTV Plate 1
# [19] = target: gp70 env protein of amphotropic MLV (4070A envelope), on purified viral particles (amphotropic murine leukemia virus (4070A envelope)); assay: ELISA on plate-bound MLV, dilution factor 10, Exp122-Ana Plate 2
# [20] = target: gp70 env protein of amphotropic MLV (4070A envelope), on purified viral particles (amphotropic murine leukemia virus (4070A envelope)); assay: ELISA on plate-bound MLV, dilution factor 156250, Exp121-Ana Plate 1
# [21] = target: gp70 env protein of amphotropic MLV (4070A envelope), on purified viral particles (amphotropic murine leukemia virus (4070A envelope)); assay: ELISA on plate-bound MLV, dilution factor 6250, Exp122-Ana Plate 2
# [22] = target: gp70 env protein of amphotropic MLV (4070A envelope), on purified viral particles (amphotropic murine leukemia virus (4070A envelope)); assay: ELISA on plate-bound MLV, dilution factor 1250, Exp121-Ana Plate 1
# [23] = target: gp70 env protein of amphotropic MLV (4070A envelope), on purified viral particles (amphotropic murine leukemia virus (4070A envelope)); assay: ELISA on plate-bound MLV, dilution factor 781250, inter-assay mean of six experiments
# [24] = target: gp70 env protein of amphotropic MLV (4070A envelope), on purified viral particles (amphotropic murine leukemia virus (4070A envelope)); assay: ELISA on plate-bound MLV, dilution factor 6250, Exp125-Ana Plate 1
# [25] = target: gp70 env protein of amphotropic MLV (4070A envelope), on purified viral particles (amphotropic murine leukemia virus (4070A envelope)); assay: ELISA on plate-bound MLV, dilution factor 50, Exp073-DTV Plate 2
# [26] = target: gp70 env protein of amphotropic MLV (4070A envelope), on purified viral particles (amphotropic murine leukemia virus (4070A envelope)); assay: ELISA on plate-bound MLV, dilution factor 10, Exp074-DTV Plate 1
# Chain of gp70 env protein of amphotropic MLV (4070A envelope), on purified viral particles (amphotropic murine leukemia virus (4070A envelope)) (P21995 whole entry): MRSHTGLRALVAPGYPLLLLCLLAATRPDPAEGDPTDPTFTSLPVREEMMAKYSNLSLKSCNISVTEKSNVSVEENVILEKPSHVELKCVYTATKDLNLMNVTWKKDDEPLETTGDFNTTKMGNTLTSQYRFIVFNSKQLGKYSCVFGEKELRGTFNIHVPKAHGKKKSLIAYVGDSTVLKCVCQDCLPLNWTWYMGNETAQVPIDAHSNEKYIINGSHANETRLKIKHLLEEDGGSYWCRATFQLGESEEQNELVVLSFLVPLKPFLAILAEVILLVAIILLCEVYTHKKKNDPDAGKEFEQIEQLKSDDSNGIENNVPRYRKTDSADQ
substance,measurement,setting,value
"83A25 monoclonal antibody (rat IgG2a, anti-gp70)",Mean OD,[1],1.48 OD
same,Mean OD,[2],1.98 OD
same,Mean OD (inter-assay mean),[3],0.259 OD
same,Mean OD (inter-assay mean),[4],2.3 OD
same,Mean OD,[5],0.14 OD
same,Mean OD,[6],0.18 OD
same,Mean OD,[7],2.65 OD
same,Mean OD,[8],1.56 OD
same,Mean OD,[9],2.27 OD
same,Mean OD,[10],2.31 OD
same,Mean OD,[11],0.105 OD
same,Mean OD,[12],2.17 OD
same,Mean OD,[13],2.01 OD
same,Mean OD,[14],0.276 OD
same,Mean OD,[15],1.61 OD
same,Mean OD,[16],1.92 OD
same,titer (reciprocal dilution (1:x)),[17],312000
same,Mean OD,[18],0.107 OD
same,Mean OD,[19],2.18 OD
same,Mean OD,[20],0.163 OD
same,Mean OD,[21],0.643 OD
same,Mean OD,[22],1.93 OD
same,Mean OD (inter-assay mean),[23],0.118 OD
same,Mean OD,[24],0.653 OD
same,Mean OD,[25],2.31 OD
same,Mean OD,[26],2.25 OD
